Consider six molecules from doi:10.1101/2023.08.01.551421 (bioRxiv, 2023).

Experiment [1] deals with GBP1 M139R, non-farnesylated (human) (UniProt P32455). The experiment in a line: SEC.
The target in experiment [2] is GBP1 Δ207-223 variant, farnesylated (human) (UniProt P32455). The experiment in a line: cross-linking.
The target of experiment [3] is GBP1 M139E, non-farnesylated (human) (UniProt P32455). The experiment is described as follows: SEC.
Experiment [4] deals with GBP1 Δ207-223 variant, non-farnesylated (human) (UniProt P32455).
For experiment [5] the target is unchanged. The experiment in a line: cross-linking.
The target in experiment [6] is T1, human guanylate-binding protein 1 (GBP1), wild type, non-farnesylated (human), P32455.
T1 chain: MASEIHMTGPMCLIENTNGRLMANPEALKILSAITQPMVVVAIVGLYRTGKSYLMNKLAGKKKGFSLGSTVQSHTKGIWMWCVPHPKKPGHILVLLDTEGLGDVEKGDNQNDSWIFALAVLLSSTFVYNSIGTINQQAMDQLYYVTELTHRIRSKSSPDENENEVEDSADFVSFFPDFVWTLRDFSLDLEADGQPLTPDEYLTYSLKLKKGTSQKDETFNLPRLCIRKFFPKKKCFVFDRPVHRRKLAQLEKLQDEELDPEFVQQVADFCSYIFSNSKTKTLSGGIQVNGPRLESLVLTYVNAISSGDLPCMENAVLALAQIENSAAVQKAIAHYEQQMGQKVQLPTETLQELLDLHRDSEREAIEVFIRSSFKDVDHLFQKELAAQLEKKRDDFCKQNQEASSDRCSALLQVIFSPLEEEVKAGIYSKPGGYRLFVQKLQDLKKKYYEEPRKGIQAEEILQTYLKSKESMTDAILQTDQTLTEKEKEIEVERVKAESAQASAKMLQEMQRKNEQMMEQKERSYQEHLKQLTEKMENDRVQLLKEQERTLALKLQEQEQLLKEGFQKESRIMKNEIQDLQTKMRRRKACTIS
The experiment is described as follows: GTP hydrolysis assay. To be noted: remark: other sources report otherwise.

The target in experiment [7] is T1, human guanylate-binding protein 1 …. The experiment is described as follows: cross-linking. To be noted: remark: other sources report otherwise.
Experiment [8] addresses T2, human guanylate-binding protein 1 (GBP1), wild type, farnesylated (human), P32455.
T2 chain: T1 chain
The experiment is described as follows: cryo-EM structure. To be noted: remark: other sources report otherwise.

In experiment [1], “GBP1 M139R, non-farnesylated (from UniProt P32455 1-592) (natural protein)” came in with a stoichiometry N of 2.

In experiment [2], “GBP1 Δ207-223 variant, farnesylated (from UniProt P32455) (natural protein)” displayed a stoichiometry N of 2.

Molecule “GBP1 M139E, non-farnesylated (from UniProt P32455 1-592) (natural protein)” yielded a stoichiometry N in experiment [3] of 2.

Take “GBP1 Δ207-223 variant, non-farnesylated (from UniProt P32455 1-592) (natural protein)”: the catalytic GTPase activity against wild-type (GTP hydrolysis assay) in experiment [4] stood at 1.7 fold. The same molecule returned a stoichiometry N in experiment [5] of 2.

B1: human guanylate-binding protein 1 (GBP1), wild type, non-farnesylated, P32455 1-592 (natural protein)
chain: T1 chain
Consider B1, for which the Kd in experiment [6] is 1900 nM. Further, the stoichiometry N in experiment [7] came out at 2.

B2: human guanylate-binding protein 1 (GBP1), wild type, farnesylated, P32455 (natural protein)
chain: T1 chain
modifications: here or on the partner: farnesyl moiety, C-terminal (CaaX box motif); farnesyl moiety, C-terminal (CaaX box motif)
In turn, B2 returned a subunits (outstretched GBP1 dimers) in one planar disk in experiment [8] of 30.
